Results on four molecules are retold here after patent publication US20070042946A1.

The target of assay [1] is human α-thrombin (human), P00734. The experiment in a line: cell-based or functional assay.
Assay [2] shares this target. In words: amidolytic assay, Tos-Gly-Pro-Arg-pNA hydrolysis by human α-thrombin, 25° C.
Assay [3] shares this target. The experiment in a line: amidolytic assay, 25° C.; from competitive inhibition at inhibitor above 20 nM (footnote c); non-competitive behaviour below 20 nM.

B1: WD22-L-P (peptide)
peptide: WDPRPQLHNDGDFEPIPEEYLQ
modifications: not checked
B1 displayed an IC50 (DCT), clotting assay, 37° C. in assay [1] of 26 nM. Also, in assay [2], the Ki (as a rule, the equilibrium dissociation constant of an inhibitor or competing ligand from its target) is 39 nM.

B2: FN (peptide)
peptide: FNPRP
modifications: not checked
Turning to B2, in assay [1], the IC50 (DCT), clotting assay, 37° C. was > 100000 nM. Besides, in assay [2], the inhibition constant Ki is > 2000 nM.

B3: WD22-R-P (peptide)
peptide: WDPRPQRHNDGDFEPIPEEYLQ
modifications: not checked
Take B3: in assay [1], the IC50 (DCT), clotting assay, 37° C.; recombinant peptide WD22-R-P^(d) came to 8.1 nM and the IC50 (DCT), clotting assay, 37° C.; synthetic peptide stood at 6.7 nM. This molecule had an inhibition constant (Ki) in assay [3] of 171 nM.

B4: WD22-R-YP (peptide)
peptide: WDPRPQRHNDGDYEPIPEEYLQ
modifications: not checked
B4: in assay [1], the IC50 (DCT), clotting assay, 37° C.; recombinant peptide WD22-R-YP^(d) came out at 4.8 nM and the IC50 (DCT), clotting assay, 37° C.; synthetic peptide came out at 4.5 nM. Besides, the Ki in assay [3] worked out at 358 nM.
